Key:
Assay in all cases: TPM
[1] = tested on: φC31 Int wt (Streptomyces coelicolor phage φC31); conditions: TPM (LI Int): 20 mM Tris-HCl pH 8.0, 150 mM KCl, 5% glycerol, 5 mM MgCl2, 5 mM DTT, 2 mg/mL BSA, 22°C, 30 min, φC31 Int at 20 nM, its buffer not in the …
[2] = tested on: φC31 Int ΔCC (Streptomyces coelicolor phage φC31); conditions: TPM (LI Int): 20 mM Tris-HCl pH 8.0, 150 mM KCl, 5% glycerol, 5 mM MgCl2, 5 mM DTT, 2 mg/mL BSA, 22°C, 30 min, φC31 Int at 20 nM, its buffer not in the …
[3] = tested on: LI Int K362A (Listeria innocua prophage (phage LI)); conditions: 200 or 400 nM Int, 5 mM Mg2+, TPM (LI Int): 20 mM Tris-HCl pH 8.0, 150 mM KCl, 5% glycerol, 5 mM MgCl2, 5 mM DTT, 2 mg/mL BSA, 22°C, 30 min, φC31 Int at 20 nM, its buffer not in the …
[4] = tested on: LI Int wt (Listeria innocua prophage (phage LI)); conditions: 5 mM Mg2+, TPM (LI Int): 20 mM Tris-HCl pH 8.0, 150 mM KCl, 5% glycerol, 5 mM MgCl2, 5 mM DTT, 2 mg/mL BSA, 22°C, 30 min, φC31 Int at 20 nM, its buffer not in the …
[5] = tested on: LI Int ΔCC (Listeria innocua prophage (phage LI)); conditions: 200 or 400 nM Int, 5 mM Mg2+, TPM (LI Int): 20 mM Tris-HCl pH 8.0, 150 mM KCl, 5% glycerol, 5 mM MgCl2, 5 mM DTT, 2 mg/mL BSA, 22°C, 30 min, φC31 Int at 20 nM, its buffer not in the …
[6] = tested on: LI Int S10A (Listeria innocua prophage (phage LI)); conditions: 5 mM Mg2+, TPM (LI Int): 20 mM Tris-HCl pH 8.0, 150 mM KCl, 5% glycerol, 5 mM MgCl2, 5 mM DTT, 2 mg/mL BSA, 22°C, 30 min, φC31 Int at 20 nM, its buffer not in the …

φC31 attL-attR head-to-tail 1303 bp
binding signal [1]: 19.9 % DNA bound | binding signal [2]: 21 % DNA bound

LI attL-attR head-to-tail 1303 bp
binding signal ([3]; no RDF): 20.5 % DNA bound | binding signal ([4]; 200 nM Int, no RDF): 48.6 % DNA bound | binding signal ([5]; no RDF): 16.1 % DNA bound | binding signal ([6]; 200 nM Int, no RDF): 51.7 % DNA bound

φC31 attB-attP head-to-tail 1303 bp
binding signal ([1]; 20 nM Int): 80.4 % DNA bound | binding signal ([2]; 20 nM Int): 30.6 % DNA bound

LI attB-attP head-to-tail 1303 bp
binding signal [3]: 54.9 % DNA bound | binding signal ([4]; 100 nM Int): 81.1 % DNA bound | binding signal [5]: 17.8 % DNA bound | binding signal ([6]; 100 nM Int): 76.4 % DNA bound

Source: PMC10754689
